The supplement of paper PMC9112550, “Optimization of the antimicrobial peptide Bac7 by deep mutational scanning” (BMC Biology, 2022)

System: Escherichia coli TOP10
Assay: shrunken log2 fold change of peptide-encoding DNA abundance (4.5 h post-induction vs induction); higher = less antimicrobial activity (less host growth inhibition)
Conditions: time post-induction: 4.5 h; library: site-saturation at positions 5, 18, 19, 20
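Further: peptides expressed intracellularly from a pBAD plasmid library in pooled LB shake-flask culture, induced with 0.3% L-arabinose, DNA abundance read by NGS, three biological replicates, DESeq2 with apeglm shrinkage.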

Row | Sequence | shrunken log2 fold change
1 | RRIRQRPPRLPRPRPRPWYEPRP | 0.0185
2 | RRIRQRPPRLPRPRPRPIRNPRP | -0.0231
3 | RRIRNRPPRLPRPRPRPYMQPRP | -0.315
4 | RRIRDRPPRLPRPRPRPCFAPRP | 0.512
5 | RRIRGRPPRLPRPRPRPPVWPRP | 0.861
6 | RRIRNRPPRLPRPRPRPITFPRP | -0.0674
7 | RRIRCRPPRLPRPRPRPQSLPRP | 0.0939
8 | RRIRTRPPRLPRPRPRPPAMPRP | 0.294
9 | RRIRGRPPRLPRPRPRPITPPRP | -0.0185
10 | RRIRQRPPRLPRPRPRPEKMPRP | -0.145
11 | RRIRKRPPRLPRPRPRPCEDPRP | 0.563
12 | RRIRCRPPRLPRPRPRPTRHPRP | 0.161
13 | RRIRRRPPRLPRPRPRPLKWPRP | -0.107
14 | RRIRGRPPRLPRPRPRPSKGPRP | -0.403
15 | RRIRYRPPRLPRPRPRPWALPRP | -0.355
16 | RRIRQRPPRLPRPRPRPDCLPRP | -0.793
17 | RRIRMRPPRLPRPRPRPACIPRP | 0.112
18 | RRIRTRPPRLPRPRPRPLYKPRP | -0.274
19 | RRIRCRPPRLPRPRPRPFPDPRP | -0.415
20 | RRIRHRPPRLPRPRPRPVMVPRP | -2.78e-05
21 | RRIRHRPPRLPRPRPRPIGAPRP | 0.173
22 | RRIRYRPPRLPRPRPRPYWQPRP | -0.000687
23 | RRIRTRPPRLPRPRPRPNHEPRP | -0.143

Row | Sequence | shrunken log2 fold change
24 | RRIRGRPPRLPRPRPRPSEAPRP | 0.848
25 | RRIRMRPPRLPRPRPRPQSKPRP | 0.0671
26 | RRIRTRPPRLPRPRPRPRHWPRP | 0.0182
27 | RRIRMRPPRLPRPRPRPNWQPRP | 0.00599
28 | RRIRNRPPRLPRPRPRPFTCPRP | -0.215
29 | RRIRMRPPRLPRPRPRPIIKPRP | -0.265
30 | RRIRIRPPRLPRPRPRPVLMPRP | -0.229
31 | RRIRERPPRLPRPRPRPMPPPRP | 0.197
32 | RRIRSRPPRLPRPRPRPAFYPRP | -0.166
33 | RRIRFRPPRLPRPRPRPKHQPRP | -0.131
34 | RRIRIRPPRLPRPRPRPQCGPRP | 0.0719
35 | RRIRFRPPRLPRPRPRPAYRPRP | -0.0676
36 | RRIRARPPRLPRPRPRPPKTPRP | 0.12
37 | RRIRPRPPRLPRPRPRPCGCPRP | 0.098
38 | RRIRMRPPRLPRPRPRPNAAPRP | 2.83
39 | RRIRDRPPRLPRPRPRPCPLPRP | -0.0882
40 | RRIRPRPPRLPRPRPRPTYRPRP | -0.236
41 | RRIRNRPPRLPRPRPRPVKTPRP | -0.0264
42 | RRIRHRPPRLPRPRPRPRAMPRP | 0.592
43 | RRIRARPPRLPRPRPRPYHMPRP | 0.00865
44 | RRIRARPPRLPRPRPRPIFTPRP | 0.165
45 | RRIRGRPPRLPRPRPRPKKNPRP | 0.778
46 | RRIRNRPPRLPRPRPRPSQLPRP | 0.00155

Row | Sequence | shrunken log2 fold change
47 | RRIRCRPPRLPRPRPRPDYPPRP | -0.221
48 | RRIRWRPPRLPRPRPRPECEPRP | 0.912
49 | RRIRQRPPRLPRPRPRPHEQPRP | 0.0505
50 | RRIRRRPPRLPRPRPRPWPIPRP | 0.0239
51 | RRIRNRPPRLPRPRPRPWMYPRP | 0.0204
52 | RRIRIRPPRLPRPRPRPCTFPRP | -0.212
53 | RRIRVRPPRLPRPRPRPGMFPRP | -0.132
54 | RRIRIRPPRLPRPRPRPMRTPRP | 0.0509
55 | RRIRSRPPRLPRPRPRPYQDPRP | 0.0107
56 | RRIRNRPPRLPRPRPRPMHDPRP | -0.117
57 | RRIRNRPPRLPRPRPRPPYHPRP | -0.362
58 | RRIRSRPPRLPRPRPRPPRLPRP | 0.322
59 | RRIRRRPPRLPRPRPRPRAPPRP | 1.02
60 | RRIRERPPRLPRPRPRPDPDPRP | -0.0294
61 | RRIRHRPPRLPRPRPRPNVWPRP | 0.0763
62 | RRIRARPPRLPRPRPRPPSCPRP | 0.503
63 | RRIRDRPPRLPRPRPRPDVGPRP | 0.232
64 | RRIRWRPPRLPRPRPRPYNYPRP | -0.331
65 | RRIRYRPPRLPRPRPRPRKRPRP | 0.266
66 | RRIRQRPPRLPRPRPRPICRPRP | 0.0232
67 | RRIRHRPPRLPRPRPRPEGTPRP | -0.0282
68 | RRIRRRPPRLPRPRPRPTCFPRP | 0.469
69 | RRIRYRPPRLPRPRPRPGLPPRP | 0.107

Row | Sequence | shrunken log2 fold change
70 | RRIRPRPPRLPRPRPRPIISPRP | -0.189
71 | RRIRARPPRLPRPRPRPIYKPRP | -0.172
72 | RRIRFRPPRLPRPRPRPNDEPRP | -0.648
73 | RRIRRRPPRLPRPRPRPDGDPRP | 0.485
74 | RRIRWRPPRLPRPRPRPNFFPRP | 0.0572
75 | RRIRKRPPRLPRPRPRPGDMPRP | 0.277
76 | RRIRLRPPRLPRPRPRPSQEPRP | -0.0518
77 | RRIRMRPPRLPRPRPRPICRPRP | 0.297
78 | RRIRSRPPRLPRPRPRPIGQPRP | 0.0342
79 | RRIRTRPPRLPRPRPRPGKGPRP | 0.0141
80 | RRIRDRPPRLPRPRPRPCNQPRP | -0.285
81 | RRIRQRPPRLPRPRPRPLGEPRP | 0.0549
82 | RRIRWRPPRLPRPRPRPTAHPRP | 0.306
83 | RRIRPRPPRLPRPRPRPMAMPRP | -0.146
84 | RRIRYRPPRLPRPRPRPWFHPRP | -0.17
85 | RRIRDRPPRLPRPRPRPPDNPRP | -0.272
86 | RRIRARPPRLPRPRPRPRDIPRP | 0.0507
87 | RRIRRRPPRLPRPRPRPFYFPRP | 0.116
88 | RRIRMRPPRLPRPRPRPNLDPRP | 0.00884
89 | RRIRSRPPRLPRPRPRPGWDPRP | 0.444
90 | RRIRSRPPRLPRPRPRPEPLPRP | 0.0528
91 | RRIRSRPPRLPRPRPRPVKVPRP | 0.0828
